Data on 98 sequences can be found in the supplement of paper PMC6755084.

For the series, the system named is F1*sub RNA substrate (template-directed ligation). The series can be described thus: fraction ligated after 30 min (ligated reads / total reads); higher = more ligase activity; sequences stand for … in GAGACCGCAACTGAAAAGTTGT…AGTTCTGCACGTAGAAGCAAAAGGC
To be noted: 42 °C. In outline:
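Ligase ribozyme variants were made from oligo-pool templates by PCR amplification, T7 transcription and gel purification. After gel separation, ligated and unligated bands were reverse transcribed with barcoded primers and sequenced on a MiSeq, with core bases filtered at quality ≥20. The fraction ligated for each variant was the number of ligated reads divided by total reads.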
“TATCACTTTCTAAGACATTTGGATGGGTTGA [3d1485]”: the fraction ligated turned out to be 0.818. In the case of TACACTTGTCGTAAGACACTTTGGTGGTTGA [3d728] it was 0.0111; in that of “TATCACTTGTCTAAGAACTTTGGAGGGTTGA [3d1860]”, 0.108. In the case of TACACTTGTCGTAAGACACTTTGGGGGTTGA [3d727] it was 0.0616; in that of TACACTTGTCGTAAGACACTTGGATGGGTTA [3d719], 0.0331. In the case of “TATCACTTGTCGTAGAATTTGGATGGGTTGA [3d2013]” it was 0.832; in that of “TATCACTGTCGTAAGACACTTGGAGGGTTGA [3d1443]”, 0.0736; in that of TTCACTTGTCTAAGACACTTTGGATGGGTTGA [2d32], 0.768. Turning to ATCATTGTCGTAAGACACTTTGGAGGGTTGA [3d101], the fraction ligated amounted to 0.12. “TATCACTTGTGTAGCACTTTGGATGGGTTGA [3d1733]” gave a fraction ligated of 0.841.

Regarding ATCACTGTGTAAGACACTTTGGATGGGTTGA [3d108], the fraction ligated is 0.823. Then “TATCACTTGTGAAGACACTTTGATGGGTTGA [3d1725]”, with 0.818; and TACACTTGTCGTAAGACCTTTGGATGGGTTG [3d706], with 0.659; and “TATCACTGTCGTAAGACACTTTGAGGGTTGA [3d1449]”, with 0.0155. Then “TATCACTGTCTAAGACACTTTGATGGGTTGA [3d1366]”, with 0.77; and TATACTTTCGTAAGACATTTGGATGGGTTGA [3d804], with 0.754. Then “TATCATTGTCGTAAGCATTTGGATGGGTTGA [3d1239]”, with 0.796; and “TATCACTTGTCGTAGACCTTTGGATGGTTGA [3d2025]”, with 0.344; and “TATCACTTGTCTAAACACTTTGGTGGGTTGA [3d1841]”, with 0.116.

The sequence TATCTGTCGTAAGACACTTTGGATGGGTTGA [3d739] displayed a fraction ligated of 0.775. The sequence TATACTTGTGTAAACACTTTGGATGGGTTGA [3d831] showed a fraction ligated of 0.799. Then “TATCATTGCGTAAGACATTTGGATGGGTTGA [3d1164]”, with 0.802; and TATACTTGTCGAAGACACTTTGGATGGGTTA [3d868], with 0.0412; and “TATCATTTCGTAAGACACTTTGATGGGTTGA [3d1150]”, with 0.799. In the case of ATCACTTTCGAAGACACTTTGGATGGGTTGA [3d126] it was 0.698; in that of TATCCTTGCGTAAGACACTTTGGATGGTTGA [3d997], 0.0475. In the case of ATCACTTGTCGTAAGACACTTTGGATGGTTGA [2d22] it was 0.76; in that of “TATCACTGTCGTAAACACTTTGGATGGTTGA [3d1405]”, 0.166; in that of TTCACTTGTGTAAGCACTTTGGATGGGTTGA [3d391], 0.775.

Regarding TACACTTGTCGAAGCACTTTGGATGGGTTGA [3d648], the fraction ligated amounted to 0.134. In the case of TACACTTGTCGTAAGACCTTTGGATGGTTGA [3d704] it was 0.358; in that of TACACTTGTCGTAAACACTTTGGATGGGTTA [3d680], 0.00723; in that of TACATGTCGTAAGACACTTTGGATGGGTTGA [3d547], 0.16.

For “TATCATTGTCGTAAGACACTTTGGGGGTTGA [3d1282]”, the fraction ligated was 0.0386. In the case of TATACTTGCTAAGACACTTTGGATGGGTTGA [3d813] it was 0.669; in that of ACACTTGTCGTAGACACTTTGGATGGGTTGA [3d33], 0.552; in that of “TATCACTTTCGTAAGACACTTGGATGGGTTG [3d1567]”, 0.773.

“TATCACTTGTCGTGACCTTTGGATGGGTTGA [3d1984]” gave a fraction ligated of 0.784. In the case of “TATCATTGTCGTAAGCACTTTGATGGGTTGA [3d1241]” it was 0.58; in that of TTCACTTGTGTAGACACTTTGGATGGGTTGA [3d389], 0.762.

In turn, ATCATTGTGTAAGACACTTTGGATGGGTTGA [3d89] had a fraction ligated of 0.79. In the case of “TATCACTTGCGTAAGAACTTTGGAGGGTTGA [3d1663]” it was 0.0542; in that of TTCATTGTCGTAAGACACTTTGGATGGGTTG [3d335], 0.285. In the case of “TATCACTTGTCTAAGACATTTGATGGGTTGA [3d1872]” it was 0.345; in that of ATACTTGTGTAAGACACTTTGGATGGGTTGA [3d51], 0.734; in that of ATCACTTGTCGAAGACACTTTGGAGGGTTGA [3d194], 0.128. Then “TATCACTTGTCGTAAGACATTGATGGGTTGA [3d2208]”, with 0.778.

Consider “TATCACTTGTTAAGACACTTTGGATGGGTTG [3d1717]”, for which the fraction ligated stood at 0.83. In the case of “TATCATTGTCGTAAGAACTTTGATGGGTTGA [3d1249]” it was 0.545. Then “TATCACTTGTCTAAGCACTTTGGATGGGTTG [3d1855]”, with 0.75; and TATACTGTCGTAAACACTTTGGATGGGTTGA [3d784], with 0.721. Then TATCCTGTCTAAGACACTTTGGATGGGTTGA [3d953], with 0.785; and “TATCACTTGTCGTAAGACACTTGTGGGTTGA [3d2239]”, with 0.00905; and “TATCACTTGTCGTAAGACATTTGGAGGGTTG [3d2226]”, with 0.00325.

In turn, TTCACTTGTGTAAGAACTTTGGATGGGTTGA [3d392] displayed a fraction ligated of 0.694. The sequence “GGTATCACTTGTCGTAAGACACTTTGGATGTTGA [s36]” showed a fraction ligated of 0.000954.

In turn, “TATCACTTGTCGTAAGACTTTGGATGGTTGA [3d2111]” registered a fraction ligated of 0.133. Then “TATCATTGTTAAGACACTTTGGATGGGTTGA [3d1172]”, with 0.798. In the case of “TATCACTTTCGTAAGAACTTTGGAGGGTTGA [3d1543]” it was 0.126. Then ATACTTGTCGTAAGACACTTTGGATGGGTTGA [2d3], with 0.478.

In the case of TTCACTTGCGTAAGACACTTTGGATGGGTTA [3d385], the fraction ligated was found to be 0.0657. “TATCACTTGTTAAGACATTTGGATGGGTTGA [3d1710]”: the fraction ligated worked out at 0.835. Then ATCATTGTCGTAAGACATTTGGATGGGTTGA [3d97], with 0.729; and “TATCCTTGTCGTAAGAACTTTGGATGGGTTA [3d1081]”, with 0.351. Then “TATCACTTGTCGTAAGCACTTGATGGGTTGA [3d2129]”, with 0.743; and “TATCATTGTCGTAAGCACTTTGGAGGGTTGA [3d1243]”, with 0.0203.

In the case of “TATCATTGCGTAAGACACTTTGGATGGTTGA [3d1169]”, the fraction ligated was 0.0894. TACACTTGTGTAAGACACTTTGGAGGGTTGA [3d628] yielded a fraction ligated of 0.0881. TACACTTGTCGTAAACACTTTGGAGGGTTGA [3d678] displayed a fraction ligated of 0.0486. In the case of “TATCACTGTCGAAGACCTTTGGATGGGTTGA [3d1376]” it was 0.798; in that of “TATCACTTGTCGTAAGCACTTTGTGGGTTGA [3d2136]”, 0.0369; in that of TACACTTGTCGTAAGACACTTGGATGGGTTGA [2d62], 0.183. Then “TATCACTTTCGTAAGAACTTTGGATGGGTTA [3d1545]”, with 0.851; and TTCACTTGTCGTAAACATTTGGATGGGTTGA [3d444], with 0.804; and “TATCACTTGCGTAGACACTTGGATGGGTTGA [3d1632]”, with 0.779. Then TTCACTTGTCGTAAACACTTTGGTGGGTTGA [3d447], with 0.0202; and “TATCACTTCGTAAGACCTTTGGATGGGTTGA [3d1318]”, with 0.802.

As for TACACTTGTCGTAGACACTTTGGAGGGTTGA [3d668], the fraction ligated amounted to 0.146. Then “TATCACTTGTCGAAGAACTTTGGATGGGTTG [3d1942]”, with 0.798. In the case of TATACTTGTCGTAAGACATTTGGAGGGTTGA [3d921] it was 0.0163; in that of ACACTTGCGTAAGACACTTTGGATGGGTTGA [3d29], 0.197. In the case of TACACTTGTGTAAACACTTTGGATGGGTTGA [3d620] it was 0.0848; in that of “TATCACTTTCGTAAGACCTTTGGTGGGTTGA [3d1549]”, 0.104. As for “TATCATTGTCGAAGAACTTTGGATGGGTTGA [3d1204]”, the fraction ligated was 0.809.

The sequence “TATCACTTGTCTAGACACTTTGATGGGTTGA [3d1830]” yielded a fraction ligated of 0.739. Regarding “TATCCTTGTCTAAGCACTTTGGATGGGTTGA [3d1018]”, the fraction ligated was found to be 0.765. In the case of TATACTTGTCGTAAGACATTTGGTGGGTTGA [3d920] it was 0.0527; in that of “TATCACTTGTCGTAAGACACTTTATGGGTTA [3d2258]”, 0.0282; in that of “TATCATTGTCTAAGACACTTTGGATGGGTTA [3d1199]”, 0.477. In the case of TATCTTGTCGTAAGACACTTGGATGGGTTGA [3d751] it was 0.776; in that of TACACTTGTCGTAAGACACTTTGGATGGGTTGA [1d3], 0.748.

“TATCACTTGTCGAAGACACTTGGATGGGTTA [3d1962]” came in with a fraction ligated of 0.721. Then “TATCACTGCGTAAGACACTTTGGATGGTTGA [3d1340]”, with 0.15.

The sequence “TATCACTTGTCGTAAGAACTTTGTGGGTTGA [3d2167]” registered a fraction ligated of 0.0101.

With “TATCATTGTCGTGACACTTTGGATGGGTTGA [3d1214]”, the fraction ligated turned out to be 0.792. In the case of ATCACTGTCGTAAGACACTTTGGTGGGTTGA [3d119] it was 0.108; in that of “TATCACTTTCGAAGACACTTGGATGGGTTGA [3d1499]”, 0.779.

As for “TATCACTTGTCGTAAGACACTTTGGAGGTTGA [2d293]”, the fraction ligated was determined as 0.0113.
